Experimental data: patent US20120277286A1, “COMPOSITIONS AND METHODS FOR THE TREATMENT OR PREVENTION OF MITOCHONDRIAL DISEASES” (The Government of the USA, as represented by the Secretary, …, priority 2009, published 2012)
*1 amine or outer side, *2 acyl side, *3 side chain or, on linkers, in order; H or OH if unused. Where a SMILES comes first, the peptide text is derived from it. Bridges are numbered along the chain shown (N, C = ends). Roman numbers before positions name the chains, in order. [ ]: non-standard residue; d: D form. Actinocin(9to1) = Cc1c2oc3c(C)ccc(C(=O)[*:1])c3nc-2c(C(=O)[*:2])c(N)c1=O; NMeV = CN[C@H](C(=O)O)C(C)C; Sar = CNCC(=O)O

System: HeLa cells
Test: Parkin colocalization with mitochondria scored by confocal microscopy
Type: cell-based
Conditions: for effect on CCCP-induced Parkin recruitment to mitochondria: HeLa cells expressing YFP-Parkin, added together with CCCP; for spontaneous translocation of mutant YFP-Parkin to mitochondria: without CCCP; for recruitment of mutant YFP-Parkin to depolarized mitochondria: CCCP 1 hr
Protocol: Cultured cells seeded in borosilicate chamber slides (Thermo Fisher Scientific) were transfected or cotransfected with YFP-Parkin, ECFP-Parkin, mCherry-Parkin, DsRed-Mito (Clontech Laboratories, Inc.), pcDNA3.1 (Invitrogen), vMIA, and/or Drp1K38A constructs using Fugene 6 (Roche). Parkin-myc was a gift from M. Cookson (National Institutes of Health, Bethesda, Md.). Cells were fixed 12-24 hours after transfection with 4% paraformaldehyde in PBS. Cells were stained with following primary antibodies: mouse monoclonal cytochrome c (BD), rabbit polyclonal Tom20 (Santa Cruz Biotechnology, Inc.), mouse monoclonal Parkin PRK8 (Santa Cruz Biotechnology, Inc.), rabbit polyclonal PMP70 (Invitrogen), and/or mouse monoclonal TRAP1 (Abcam); and with the following secondary antibodies: mouse and/or rabbit Alexa 488, 594, and 633 (Invitrogen). For assessment of mitochondrial membrane potential, cells were pulsed with 50 nM Mito-Tracker red (Invitrogen) for 15 min, washed, and incubated for an additional 10 minutes before fixation or imaging. For assessment of cell metabolic potential, cell nuclei were stained with Hoechst 33342 (Invitrogen).
Fixed cells and live cells in the FLIP assay were imaged using an inverted microscope (LSM510 Meta; Carl Zeiss, Inc.) with a 63×/1.4 oil DIC Plan Apo objective at 25° C. and 37° C., respectively. For the FLIP assay, a bleach region of interest (ROI) occupying approximately one eighth of the cell was positioned over a relatively mitochondria-free portion of the cytosol. Cells were alternately bleached (488 nm using a 30-mW argon laser at 75% power and 100% transmission for 150 iterations) and imaged (488 nm at 75% power and 2% transmission) for 10 minutes (—60 cycles over the length of the experiment). Two channel prebleach and postbleach images were obtained with 488 and 594 lasers to assess the position of mitochondria before and after bleaching. Circular ROIs with diameters of ˜1 and 5 μm, respectively, were placed over the mitochondria and cytosol of the target cell, and an ROI of 10 μm was placed over the control cell. Imaging of YFP-Parkin translocation in live HeLa cells was performed on a live cell imager system (UltraView LCI; PerkinElmer) at 35° C. with a 100×/1.45 α-Plan-Fluor objective.
Image contrast and brightness were adjusted in Photoshop (Adobe). Colocalization was assessed with line scans using MetaMorph (MDS Analytical Technologies). For analysis of mitochondrial membrane potential in cells, mitochondrial voxels in each image (the cytochrome c channel threshold was ≧400 au) were segregated into Parkin-positive (the YFP-Parkin channel threshold was ≧1,100 au) or Parkin-negative subsets, and MitoTracker intensity for each voxel was measured using Volocity software (Improvision). For each cell, the mean MitoTracker intensity per voxel was calculated for the Parkin-positive and Parkin-negative subsets. The difference in mean Mito-Tracker intensity between the Parkin-positive and Parkin-negative subsets was calculated using a paired t test. Western blotting HeLa cells stably expressing YFP-Parkin, HEK293 cells, and rat cortical neurons 2 days in vitro were harvested and fractionated as described previously (Karbowski et al., J. Cell Biol. 178: 71-84, 2007). Samples were run on SDS-PAGE and immunoblotted with the following antibodies: polyclonal rabbit anti-GFP (Invitrogen), mouse monoclonal anti-Parkin (PRK8), and mouse monoclonal anti-Porin 31HL (EMD).
Confocal microscopy of fixed samples, scoring of Parkin recruitment and Parkininduced mitophagy, and live cell imaging were performed as described previously (Narendra (2008) J Cell Biol 183: 795-803). Experiments in Mfn1/2 null cells were performed as described previously with minor modifications.
Confocal microscopy of fixed samples, scoring of Parkin recruitment and Parkin-induced mitophagy, and live cell imageing were performed as described previously (Narendra (2008) J Cell Biol 183: 795-803). […]

Molecule	effect on CCCP-induced Parkin recruitment to mitochondria	spontaneous translocation of mutant YFP-Parkin to mitochondria (HeLa)	also measured
CC(=O)N[C@@H](CS)C(=O)O [N-acetyl-cysteine, reference compound]	not blocked	–	–
Cc1c2oc3c(C)ccc(C(=O)N[C@@H]4C(=O)N[C@H](C(C)C)C(=O)N5CCC[C@H]5C(=O)N(C)CC(=O)N(C)[C@@H](C(C)C)C(=O)O[C@@H]4C)c3nc-2c(C(=O)N[C@@H]2C(=O)N[C@H](C(C)C)C(=O)N3CCC[C@H]3C(=O)N(C)CC(=O)N(C)[C@@H](C(C)C)C(=O)O[C@@H]2C)c(N)c1=O [actinomycin D, reference compound] (I: T[dV]P[Sar][NMeV] / II: T[dV]P[Sar][NMeV]; ester I:1-I:C, II:1-II:C; linker I:N-II:N via Actinocin(9to1))	modest effect	–	–
CC[C@H]1/C=C/C=C/C[C@@H](C)[C@H](O)[C@@](C)(O)C(=O)[C@@H](C)[C@H](O)[C@@H](C)C(=O)[C@@H](C)[C@H](O)[C@@H](C)/C=C/C(=O)O[C@@H]2[C@H](C)[C@H](CC1)O[C@]1(CC[C@H](C)[C@H](C[C@@H](C)O)O1)[C@H]2C [oligomycin, reference compound]	not inhibited	–	YFP-Parkin colocalization with mitochondria, % of cells (HeLa cells, 10 μM CCCP+10 μM oligomycin, 1 hour): 77.35±7.64%
PINK1-YFP: YFP fused to PINK1 (protein, UniProt Q9BXM7 78-581, looked up, YFP fusion) Serine/threonine-protein …: AARLQRQFVVRAWGCAGPCGRAVFLAFGLGLGLIEEKQAESRRAVSACQEIQAIFTQKSKPGPDPLDTRRLQGFRLEEYLIGQSIGKGCSAAVYEATMPTLPQNLEVTKSTGLLPGRGPGTSAPGEGQERAPGAPAFPLAIKMMWNISAGSSSEAILNTMSQELVPASRVALAGEYGAVTYRKSKRGPKQLAPHPNIIRVLRAFTSSVPLLPGALVDYPDVLPSRLHPEGLGHGRTLFLVMKNYPCTLRQYLCVNTPSPRLAAMMLLQLLEGVDHLVQQGIAHRDLKSDNILVELDPDGCPWLVIADFGCCLADESIGLQLPFSSWYVDRGGNGCLMAPEVSTARPGPRAVIDYSKADAWAVGAIAYEIFGLVNPFYGQGKAHLESRSYQEAQLPALPESVPPDVRQLVRALLQREASKRPSARVAANVLHLSLWGEHILALKNLKLDKMVGWLLQQSAATLLANRLTEKCCVETKMKMLFLANLECETLCQAALLLCSWRAAL	–	–	cells with mCherry-Parkin recruited to mitochondria (HeLa, co-expression, absence of CCCP): 57.9±1.8%
T175E: phosphomimetic YFP-Parkin mutant (protein, UniProt O60260 1-465, looked up, variant T175E, YFP fusion, phosphomimetic YFP-Parkin mutant) E3 ubiquitin-protein ligase …: MIVFVRFNSSHGFPVEVDSDTSIFQLKEVVAKRQGVPADQLRVIFAGKELRNDWTVQNCDLDQQSIVHIVQRPWRKGQEMNATGGDDPRNAAGGCEREPQSLTRVDLSSSVLPGDSVGLAVILHTDSRKDSPPAGSPAGRSIYNSFYVYCKGPCQRVQPGKLRVQCSTCRQATLELTQGPSCWDDVLIPNRMSGECQSPHCPGTSAEFFFKCGAHPTSDKETSVALHLIATNSRNITCITCTDVRSPVLVFQCNSRHVICLDCFHLYCVTRLNDRQFVHDPQLGYSLPCVAGCPNSLIKELHHFRILGEEQYNRYQQYGAEECVLQMGGVLCPRPGCGAGLLPEPDQRKVTCEGGNGLGCGFAFCRECKEAYHEGECSAVFEASGTTTQAYRVDERAAEQARWEAASKETIKKTTKPCPRCHVPVEKNGGCMHMKCPQPQCRLEWCWNCGCEWNRVCMGDHWFDV	–	did not translocate to mitochondria spontaneously	–
T175, 217E: double phosphomimetic YFP-Parkin mutant (protein, UniProt O60260 1-465, looked up, variant T175E T217E, YFP fusion, double phosphomimetic YFP-Parkin mutant) E3 ubiquitin-protein ligase …: MIVFVRFNSSHGFPVEVDSDTSIFQLKEVVAKRQGVPADQLRVIFAGKELRNDWTVQNCDLDQQSIVHIVQRPWRKGQEMNATGGDDPRNAAGGCEREPQSLTRVDLSSSVLPGDSVGLAVILHTDSRKDSPPAGSPAGRSIYNSFYVYCKGPCQRVQPGKLRVQCSTCRQATLELTQGPSCWDDVLIPNRMSGECQSPHCPGTSAEFFFKCGAHPESDKETSVALHLIATNSRNITCITCTDVRSPVLVFQCNSRHVICLDCFHLYCVTRLNDRQFVHDPQLGYSLPCVAGCPNSLIKELHHFRILGEEQYNRYQQYGAEECVLQMGGVLCPRPGCGAGLLPEPDQRKVTCEGGNGLGCGFAFCRECKEAYHEGECSAVFEASGTTTQAYRVDERAAEQARWEAASKETIKKTTKPCPRCHVPVEKNGGCMHMKCPQPQCRLEWCWNCGCEWNRVCMGDHWFDV	–	did not translocate to mitochondria spontaneously	–
I44A: YFP-Parkin with engineered UBL mutation (protein, UniProt O60260 1-465, looked up, variant I44A, YFP fusion, YFP-Parkin with engineered UBL mutation) E3 ubiquitin-protein ligase …: MIVFVRFNSSHGFPVEVDSDTSIFQLKEVVAKRQGVPADQLRVAFAGKELRNDWTVQNCDLDQQSIVHIVQRPWRKGQEMNATGGDDPRNAAGGCEREPQSLTRVDLSSSVLPGDSVGLAVILHTDSRKDSPPAGSPAGRSIYNSFYVYCKGPCQRVQPGKLRVQCSTCRQATLTLTQGPSCWDDVLIPNRMSGECQSPHCPGTSAEFFFKCGAHPTSDKETSVALHLIATNSRNITCITCTDVRSPVLVFQCNSRHVICLDCFHLYCVTRLNDRQFVHDPQLGYSLPCVAGCPNSLIKELHHFRILGEEQYNRYQQYGAEECVLQMGGVLCPRPGCGAGLLPEPDQRKVTCEGGNGLGCGFAFCRECKEAYHEGECSAVFEASGTTTQAYRVDERAAEQARWEAASKETIKKTTKPCPRCHVPVEKNGGCMHMKCPQPQCRLEWCWNCGCEWNRVCMGDHWFDV	–	–	recruitment of mutant YFP-Parkin to depolarized mitochondria (HeLa): moderate deficit
T217E: phosphomimetic YFP-Parkin mutant (protein, UniProt O60260 1-465, looked up, variant T217E, YFP fusion, phosphomimetic YFP-Parkin mutant) E3 ubiquitin-protein ligase …: MIVFVRFNSSHGFPVEVDSDTSIFQLKEVVAKRQGVPADQLRVIFAGKELRNDWTVQNCDLDQQSIVHIVQRPWRKGQEMNATGGDDPRNAAGGCEREPQSLTRVDLSSSVLPGDSVGLAVILHTDSRKDSPPAGSPAGRSIYNSFYVYCKGPCQRVQPGKLRVQCSTCRQATLTLTQGPSCWDDVLIPNRMSGECQSPHCPGTSAEFFFKCGAHPESDKETSVALHLIATNSRNITCITCTDVRSPVLVFQCNSRHVICLDCFHLYCVTRLNDRQFVHDPQLGYSLPCVAGCPNSLIKELHHFRILGEEQYNRYQQYGAEECVLQMGGVLCPRPGCGAGLLPEPDQRKVTCEGGNGLGCGFAFCRECKEAYHEGECSAVFEASGTTTQAYRVDERAAEQARWEAASKETIKKTTKPCPRCHVPVEKNGGCMHMKCPQPQCRLEWCWNCGCEWNRVCMGDHWFDV	–	did not translocate to mitochondria spontaneously	–
C212Y: YFP-Parkin patient mutation in conserved RING-like region (protein, UniProt O60260 1-465, looked up, variant C212Y, N-terminal YFP fusion, YFP-Parkin patient mutation in conserved RING-like region) E3 ubiquitin-protein ligase …: MIVFVRFNSSHGFPVEVDSDTSIFQLKEVVAKRQGVPADQLRVIFAGKELRNDWTVQNCDLDQQSIVHIVQRPWRKGQEMNATGGDDPRNAAGGCEREPQSLTRVDLSSSVLPGDSVGLAVILHTDSRKDSPPAGSPAGRSIYNSFYVYCKGPCQRVQPGKLRVQCSTCRQATLTLTQGPSCWDDVLIPNRMSGECQSPHCPGTSAEFFFKYGAHPTSDKETSVALHLIATNSRNITCITCTDVRSPVLVFQCNSRHVICLDCFHLYCVTRLNDRQFVHDPQLGYSLPCVAGCPNSLIKELHHFRILGEEQYNRYQQYGAEECVLQMGGVLCPRPGCGAGLLPEPDQRKVTCEGGNGLGCGFAFCRECKEAYHEGECSAVFEASGTTTQAYRVDERAAEQARWEAASKETIKKTTKPCPRCHVPVEKNGGCMHMKCPQPQCRLEWCWNCGCEWNRVCMGDHWFDV	–	–	recruitment of mutant YFP-Parkin to depolarized mitochondria (HeLa): blocked
